We go through six substances from patent US20090215991A1.

Chain of extracellular region of human V158 FcγRIIIa with C-terminal 6xHis-tag and GST-tag (human) (P08637 17-208 F176V): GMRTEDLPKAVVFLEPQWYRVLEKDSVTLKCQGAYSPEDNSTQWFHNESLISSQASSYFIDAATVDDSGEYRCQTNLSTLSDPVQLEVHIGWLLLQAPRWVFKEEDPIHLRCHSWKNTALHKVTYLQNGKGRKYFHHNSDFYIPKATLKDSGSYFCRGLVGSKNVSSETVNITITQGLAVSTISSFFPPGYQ

For one assay, the target named is FcγRIIIa on human PBMCs expressing heterozygous V158/F158 FcγRIIIa (human) (UniProt P08637). As to the kind of experiment: cell-based or functional assay.
Chain of FcγRIIIa on human PBMCs expressing heterozygous V158/F158 FcγRIIIa (human) (P08637 17-254): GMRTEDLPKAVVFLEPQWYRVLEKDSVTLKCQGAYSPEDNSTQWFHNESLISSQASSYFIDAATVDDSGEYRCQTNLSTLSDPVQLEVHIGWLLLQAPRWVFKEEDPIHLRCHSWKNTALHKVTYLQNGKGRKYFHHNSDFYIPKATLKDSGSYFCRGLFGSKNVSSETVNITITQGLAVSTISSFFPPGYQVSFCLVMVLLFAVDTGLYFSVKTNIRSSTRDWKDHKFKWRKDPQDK
Turning to V264I/I332E alemtuzumab (antibody), the ADCC log(EC50), DoHH-2 target cells was 0.6 log(ng/ml).
Still for that read-out and setting: the figure for S239D/I332E alemtuzumab (antibody) is 0.49 log(ng/ml).

Another assay concerns the target extracellular region of human V158 FcγRIIIa with C-terminal 6xHis-tag and GST-tag (human) (UniProt P08637). The experiment in a line: SPR. For orientation: SPR reads the build-up and loss of mass on a sensor chip optically.
The substance S304T alemtuzumab (antibody) gave a Fold WT of 12.8 fold.
Still for that read-out and setting: the figure for E272R alemtuzumab (antibody) is 1.38 fold.
Take E283H alemtuzumab (antibody): the Fold WT was 2.31 fold.
As for V284E alemtuzumab (antibody), the Fold WT was determined as 1.51 fold.
